From article doi:10.1101/2020.06.23.166439

Biological target: tail tube protein (TTP) gp17.1 of bacteriophage SPP1 (bacteriophage SPP1)
Assay: cryo-EM structure + other: solid-state NMR

tail tube protein (TTP) gp17.1 of bacteriophage SPP1 (natural protein)
stoichiometry N: 6
